Measured values reported in paper PMC10786891, “Massively parallel profiling of RNA-targeting CRISPR-Cas13d”.

B1: target 1 del11,del13 (mixed)
RNA 1: CACCCGUGCAAAAAUGCAGGGGUCUAAAACUGAGCGGAUAACCUCUCUAUGG
RNA 2: GGGAAUGGAUCCACAUCUACGAAUUCGUACCAUAGAGAGUAUCCGCUCACCGAGAUCGGAAGAGCACACGU
B2: target 1 insA 3' of 19,insA 3' of 11 (mixed)
RNA 1: CACCCGUGCAAAAAUGCAGGGGUCUAAAACUGAGCGGAUAACCUCUCUAUGG
RNA 2: GGGAAUGGAUCCACAUCUACGAAUUCGUACCAUAAGAGAGGUAUAUCCGCUCACCGAGAUCGGAAGAGCACACGU
B3: target 1 insU 3' of 5,insC 3' of 5 (mixed)
RNA 1: CACCCGUGCAAAAAUGCAGGGGUCUAAAACUGAGCGGAUAACCUCUCUAUGG
RNA 2: GGGAAUGGAUCCACAUCUACGAAUUCGUACCAUAGAGAGGUUAUCCGUCCUCACCGAGAUCGGAAGAGCACACGU
B4: target 1 insA 3' of 6,insU 3' of 4 (mixed)
RNA 1: CACCCGUGCAAAAAUGCAGGGGUCUAAAACUGAGCGGAUAACCUCUCUAUGG
RNA 2: GGGAAUGGAUCCACAUCUACGAAUUCGUACCAUAGAGAGGUUAUCCAGCUUCACCGAGAUCGGAAGAGCACACGU
B5: target 1 del9,del13 (mixed)
RNA 1: CACCCGUGCAAAAAUGCAGGGGUCUAAAACUGAGCGGAUAACCUCUCUAUGG
RNA 2: GGGAAUGGAUCCACAUCUACGAAUUCGUACCAUAGAGAGUUUCCGCUCACCGAGAUCGGAAGAGCACACGU
B6: target 1 C6A,C7A (mixed)
RNA 1: CACCCGUGCAAAAAUGCAGGGGUCUAAAACUGAGCGGAUAACCUCUCUAUGG
RNA 2: GGGAAUGGAUCCACAUCUACGAAUUCGUACCAUAGAGAGGUUAUAAGCUCACCGAGAUCGGAAGAGCACACGU
B7: target 1 U3G,G5A (mixed)
RNA 1: CACCCGUGCAAAAAUGCAGGGGUCUAAAACUGAGCGGAUAACCUCUCUAUGG
RNA 2: GGGAAUGGAUCCACAUCUACGAAUUCGUACCAUAGAGAGGUUAUCCACGCACCGAGAUCGGAAGAGCACACGU
B8: target 1 insC 3' of 9,insA 3' of 4 (mixed)
RNA 1: CACCCGUGCAAAAAUGCAGGGGUCUAAAACUGAGCGGAUAACCUCUCUAUGG
RNA 2: GGGAAUGGAUCCACAUCUACGAAUUCGUACCAUAGAGAGGUUACUCCGCAUCACCGAGAUCGGAAGAGCACACGU
B9: target 1 insA 3' of 19,insU 3' of 12 (mixed)
RNA 1: CACCCGUGCAAAAAUGCAGGGGUCUAAAACUGAGCGGAUAACCUCUCUAUGG
RNA 2: GGGAAUGGAUCCACAUCUACGAAUUCGUACCAUAAGAGAGGUUUAUCCGCUCACCGAGAUCGGAAGAGCACACGU
B10: target 1 insU 3' of 9,insA 3' of 6 (mixed)
RNA 1: CACCCGUGCAAAAAUGCAGGGGUCUAAAACUGAGCGGAUAACCUCUCUAUGG
RNA 2: GGGAAUGGAUCCACAUCUACGAAUUCGUACCAUAGAGAGGUUAUUCCAGCUCACCGAGAUCGGAAGAGCACACGU
B11: target 1 insU 3' of 20,insA 3' of 6 (mixed)
RNA 1: CACCCGUGCAAAAAUGCAGGGGUCUAAAACUGAGCGGAUAACCUCUCUAUGG
RNA 2: GGGAAUGGAUCCACAUCUACGAAUUCGUACCAUUAGAGAGGUUAUCCAGCUCACCGAGAUCGGAAGAGCACACGU
B12: target 1 U8A,G12U (mixed)
RNA 1: CACCCGUGCAAAAAUGCAGGGGUCUAAAACUGAGCGGAUAACCUCUCUAUGG
RNA 2: GGGAAUGGAUCCACAUCUACGAAUUCGUACCAUAGAGAGUUUAACCGCUCACCGAGAUCGGAAGAGCACACGU
B13: target 1 insC 3' of 17,insU 3' of 5 (mixed)
RNA 1: CACCCGUGCAAAAAUGCAGGGGUCUAAAACUGAGCGGAUAACCUCUCUAUGG
RNA 2: GGGAAUGGAUCCACAUCUACGAAUUCGUACCAUAGCAGAGGUUAUCCGUCUCACCGAGAUCGGAAGAGCACACGU
B14: target 1 insC 3' of 10,insA 3' of 5 (mixed)
RNA 1: CACCCGUGCAAAAAUGCAGGGGUCUAAAACUGAGCGGAUAACCUCUCUAUGG
RNA 2: GGGAAUGGAUCCACAUCUACGAAUUCGUACCAUAGAGAGGUUCAUCCGACUCACCGAGAUCGGAAGAGCACACGU
B15: target 1 insG 3' of 19,insA 3' of 15 (mixed)
RNA 1: CACCCGUGCAAAAAUGCAGGGGUCUAAAACUGAGCGGAUAACCUCUCUAUGG
RNA 2: GGGAAUGGAUCCACAUCUACGAAUUCGUACCAUGAGAGAAGGUUAUCCGCUCACCGAGAUCGGAAGAGCACACGU
B16: target 1 A1U,C6A (mixed)
RNA 1: CACCCGUGCAAAAAUGCAGGGGUCUAAAACUGAGCGGAUAACCUCUCUAUGG
RNA 2: GGGAAUGGAUCCACAUCUACGAAUUCGUACCAUAGAGAGGUUAUCAGCUCUCCGAGAUCGGAAGAGCACACGU
B17: target 1 insA 3' of 21,insA 3' of 11 (mixed)
RNA 1: CACCCGUGCAAAAAUGCAGGGGUCUAAAACUGAGCGGAUAACCUCUCUAUGG
RNA 2: GGGAAUGGAUCCACAUCUACGAAUUCGUACCAAUAGAGAGGUAUAUCCGCUCACCGAGAUCGGAAGAGCACACGU
B18: target 1 G12U,A18G (mixed)
RNA 1: CACCCGUGCAAAAAUGCAGGGGUCUAAAACUGAGCGGAUAACCUCUCUAUGG
RNA 2: GGGAAUGGAUCCACAUCUACGAAUUCGUACCAUGGAGAGUUUAUCCGCUCACCGAGAUCGGAAGAGCACACGU
B19: target 1 complement block 6-9 (mixed)
RNA 1: CACCCGUGCAAAAAUGCAGGGGUCUAAAACUGAGCGGAUAACCUCUCUAUGG
RNA 2: GGGAAUGGAUCCACAUCUACGAAUUCGUACCAUAGAGAGGUUUAGGGCUCACCGAGAUCGGAAGAGCACACGU
B20: target 1 insU 3' of 9,insU 3' of 6 (mixed)
RNA 1: CACCCGUGCAAAAAUGCAGGGGUCUAAAACUGAGCGGAUAACCUCUCUAUGG
RNA 2: GGGAAUGGAUCCACAUCUACGAAUUCGUACCAUAGAGAGGUUAUUCCUGCUCACCGAGAUCGGAAGAGCACACGU
B21: target 1 C6A (mixed)
RNA 1: CACCCGUGCAAAAAUGCAGGGGUCUAAAACUGAGCGGAUAACCUCUCUAUGG
RNA 2: GGGAAUGGAUCCACAUCUACGAAUUCGUACCAUAGAGAGGUUAUCAGCUCACCGAGAUCGGAAGAGCACACGU
B22: target 1 insU 3' of 18,insU 3' of 1 (mixed)
RNA 1: CACCCGUGCAAAAAUGCAGGGGUCUAAAACUGAGCGGAUAACCUCUCUAUGG
RNA 2: GGGAAUGGAUCCACAUCUACGAAUUCGUACCAUAUGAGAGGUUAUCCGCUCAUCCGAGAUCGGAAGAGCACACGU
B23: target 1 U10G,A14C (mixed)
RNA 1: CACCCGUGCAAAAAUGCAGGGGUCUAAAACUGAGCGGAUAACCUCUCUAUGG
RNA 2: GGGAAUGGAUCCACAUCUACGAAUUCGUACCAUAGAGCGGUGAUCCGCUCACCGAGAUCGGAAGAGCACACGU
B24: target 1 C7G,U11A (mixed)
RNA 1: CACCCGUGCAAAAAUGCAGGGGUCUAAAACUGAGCGGAUAACCUCUCUAUGG
RNA 2: GGGAAUGGAUCCACAUCUACGAAUUCGUACCAUAGAGAGGAUAUGCGCUCACCGAGAUCGGAAGAGCACACGU
B25: target 1 del13 (mixed)
RNA 1: CACCCGUGCAAAAAUGCAGGGGUCUAAAACUGAGCGGAUAACCUCUCUAUGG
RNA 2: GGGAAUGGAUCCACAUCUACGAAUUCGUACCAUAGAGAGUUAUCCGCUCACCGAGAUCGGAAGAGCACACGU
B26: target 1 C2G,U11C (mixed)
RNA 1: CACCCGUGCAAAAAUGCAGGGGUCUAAAACUGAGCGGAUAACCUCUCUAUGG
RNA 2: GGGAAUGGAUCCACAUCUACGAAUUCGUACCAUAGAGAGGCUAUCCGCUGACCGAGAUCGGAAGAGCACACGU
B27: target 1 U8G,A9G (mixed)
RNA 1: CACCCGUGCAAAAAUGCAGGGGUCUAAAACUGAGCGGAUAACCUCUCUAUGG
RNA 2: GGGAAUGGAUCCACAUCUACGAAUUCGUACCAUAGAGAGGUUGGCCGCUCACCGAGAUCGGAAGAGCACACGU
B28: target 1 G17U,U19C (mixed)
RNA 1: CACCCGUGCAAAAAUGCAGGGGUCUAAAACUGAGCGGAUAACCUCUCUAUGG
RNA 2: GGGAAUGGAUCCACAUCUACGAAUUCGUACCACAUAGAGGUUAUCCGCUCACCGAGAUCGGAAGAGCACACGU

Biological target: T1, EsCas13d, nuclease-dead (Eubacterium siraeum, UniProt B0MS50, R295A;H300A;R849A;H854A)
T1 sequence: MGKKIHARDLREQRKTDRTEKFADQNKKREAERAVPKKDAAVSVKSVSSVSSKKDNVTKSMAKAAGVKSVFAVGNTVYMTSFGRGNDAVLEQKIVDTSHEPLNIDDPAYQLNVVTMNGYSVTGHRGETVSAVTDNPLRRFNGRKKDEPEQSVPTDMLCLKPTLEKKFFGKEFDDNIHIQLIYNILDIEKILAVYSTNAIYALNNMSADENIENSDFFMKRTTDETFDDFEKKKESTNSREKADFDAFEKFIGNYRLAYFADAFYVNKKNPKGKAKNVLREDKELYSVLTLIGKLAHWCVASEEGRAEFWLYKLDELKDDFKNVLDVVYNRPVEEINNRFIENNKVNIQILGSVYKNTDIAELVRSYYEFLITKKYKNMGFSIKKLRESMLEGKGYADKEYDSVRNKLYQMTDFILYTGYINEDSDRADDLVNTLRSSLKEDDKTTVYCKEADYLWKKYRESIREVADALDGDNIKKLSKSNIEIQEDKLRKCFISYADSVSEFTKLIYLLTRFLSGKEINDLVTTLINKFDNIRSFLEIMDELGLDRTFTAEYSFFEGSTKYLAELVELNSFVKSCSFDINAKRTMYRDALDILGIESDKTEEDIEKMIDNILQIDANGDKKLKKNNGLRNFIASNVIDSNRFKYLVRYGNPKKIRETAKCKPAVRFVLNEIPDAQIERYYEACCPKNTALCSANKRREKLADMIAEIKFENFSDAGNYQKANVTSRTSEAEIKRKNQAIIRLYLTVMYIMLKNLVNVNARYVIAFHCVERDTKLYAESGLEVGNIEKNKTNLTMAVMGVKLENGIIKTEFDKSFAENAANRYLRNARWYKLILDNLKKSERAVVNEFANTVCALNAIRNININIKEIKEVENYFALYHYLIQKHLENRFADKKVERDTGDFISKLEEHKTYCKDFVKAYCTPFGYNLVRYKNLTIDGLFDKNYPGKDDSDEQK
Experiment: crRNA (strand 1, pre-loaded); Mg2+; 40 mM Tris-HCl pH 7.5, 150 mM NaCl, 6 mM MgCl2, 1 mM DTT, 0.1% Tween-20, 0.2 mg/ml BSA; 25 C; 10 min per concentration, then washed
Conditions: tags: His6-TwinStrep-SUMO cleaved; N-terminal SNAP kept (SNAP-Surface 488); label: 3' end held by stalled T7 RNA polymerase

Binder	Kd
B1	11.1 ± 0.9 nM
B2	41.3 ± 2.2 nM
B3	35 ± 4 nM
B4	19.8 ± 1.1 nM
B5	21.3 ± 1.1 nM
B6	7.47 ± 0.35 nM
B7	43 ± 4 nM
B8	9.5 ± 1 nM
B9	17.9 ± 1.2 nM
B10	23.5 ± 2.7 nM
B11	15.9 ± 1.1 nM
B12	13.1 ± 0.8 nM
B13	35.2 ± 3.2 nM
B14	10.4 ± 1.1 nM
B15	56 ± 7 nM
B16	7.5 ± 0.4 nM
B17	36.6 ± 2.9 nM
B18	78 ± 16 nM
B19	7.7 ± 0.5 nM
B20	46 ± 6 nM
B21	6.17 ± 0.3 nM
B22	33 ± 1.8 nM
B23	94 ± 23 nM
B24	25 ± 4 nM
B25	8.6 ± 0.6 nM
B26	7.4 ± 0.4 nM
B27	19.1 ± 1.3 nM
B28	14.4 ± 0.8 nM
